Data on 17 variants can be found in the supplement of paper PMC7125110.

B1: glmS ribozyme (parent)
chain: AUAAAAGCGCCAGAACUACAGAAAUGUAGUUGACGAGGAGGAGGUUUAUCGAAUUUUCGGCGGAUGCCUCCAAA

± gives the standard error. For some assays here: Fewer inactive variants are shown than the library holds.

What all share (conditions): with glucosamine-6-phosphate
Variants of B1 are the subject of series [1]. The experiment in a line: kcat; higher = faster cleavage; RNA array. The procedure, abridged:
(§1)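 Over ~14 h at 37 °C, tiles were imaged as glucosamine-6-phosphate (40 μM to 10 mM) in HEPES/KCl/Mg(OAc)2 buffer flowed across sequenced MiSeq chips. The chips carried barcoded ribozyme variants transcribed in situ by E. coli RNA polymerase and tracked with a hybridised Cy3 probe. After normalisation to baseline and to non-cleaving reference variants, one- or two-exponential decay fits of per-tile medians gave kobs. kcat and KM followed from weighted Michaelis–Menten fits across concentrations.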

Series [2] covers variants of B1. The series can be described thus: KM; higher = weaker cofactor use; RNA array. The method, boiled down:
as §1

The variants in series [3] derive from B1. The series can be described thus: self-cleavage kobs at 160 uM GlcN6P; higher = faster cleavage; RNA array. The procedure, abridged:
as §1

Series [4] covers variants of B1. The experiment in a line: self-cleavage kobs at 640 uM GlcN6P; higher = faster cleavage; RNA array. The method, boiled down: as §1
Variants of B1 are the subject of series [5]. The series can be described thus: self-cleavage kobs at 2500 uM GlcN6P; higher = faster cleavage; RNA array. The procedure, abridged:
as §1

The variants in series [6] derive from B1. The series can be described thus: self-cleavage kobs at 10000 uM GlcN6P; higher = faster cleavage; RNA array. The method, boiled down:
as §1

Series [7] covers variants of B1. The experiment in a line: self-cleavage kobs at 40 uM GlcN6P; higher = faster cleavage; RNA array. The method, boiled down:
as §1

For orientation: kcat means the number of substrate molecules converted per active site and unit of time at saturation. With G37U C71A, in the series with glucosamine-6-phosphate [1], the kcat worked out at 1.95e-05 ± 4.6e-06 s⁻¹.
In general, KM refers to the concentration of substrate that gives half-maximal velocity. In the case of U65C C70U, the kcat in the series with glucosamine-6-phosphate [1] was 0.000844 ± 0.0001 s⁻¹. Moreover, the KM in the series with glucosamine-6-phosphate [2] stood at 2930 ± 550 µM. In addition, the “self-cleavage kobs at 160 uM GlcN6P” value with glucosamine-6-phosphate [3] stood at 3.71e-05 ± 1e-05 s⁻¹. For the same variant, in the series with glucosamine-6-phosphate [4], the “self-cleavage kobs at 640 uM GlcN6P” value was 0.000169 ± 2.7e-05 s⁻¹. The “self-cleavage kobs at 2500 uM GlcN6P” value in the series with glucosamine-6-phosphate [5] came to 0.000379 ± 7.6e-05 s⁻¹. The “self-cleavage kobs at 10000 uM GlcN6P” value with glucosamine-6-phosphate [6] was found to be 0.000647 ± 0.0001 s⁻¹.
In the case of A15G A36U, in the series with glucosamine-6-phosphate [1], the kcat was below 1e-05 s⁻¹. The “self-cleavage kobs at 160 uM GlcN6P” value in the series with glucosamine-6-phosphate [3] is below 1e-05 s⁻¹. The “self-cleavage kobs at 640 uM GlcN6P” value with glucosamine-6-phosphate [4] is below 1e-05 s⁻¹.
With A15G C61A, the turnover number (kcat) in the series with glucosamine-6-phosphate [1] is below 1e-05 s⁻¹.
For the variant A39C U46C U56C, in the series with glucosamine-6-phosphate [1], the kcat amounted to 0.000367 ± 3.7e-05 s⁻¹. Further, in the series with glucosamine-6-phosphate [2], the KM came to 2880 ± 510 µM. Moreover, the “self-cleavage kobs at 640 uM GlcN6P” value in the series with glucosamine-6-phosphate [4] is 6.45e-05 ± 1.5e-05 s⁻¹. For the same variant, the “self-cleavage kobs at 2500 uM GlcN6P” value in the series with glucosamine-6-phosphate [5] was found to be 0.000196 ± 5.6e-05 s⁻¹. Also, the “self-cleavage kobs at 10000 uM GlcN6P” value with glucosamine-6-phosphate [6] was 0.000277 ± 5.9e-05 s⁻¹.
As for A12G U57C, in the series with glucosamine-6-phosphate [1], the kcat was 1.17e-05 ± 1.7e-06 s⁻¹. In addition, the “self-cleavage kobs at 40 uM GlcN6P” value with glucosamine-6-phosphate [7] was below 1e-05 s⁻¹.
With G32U G40U, the kcat with glucosamine-6-phosphate [1] was determined as 0.000265 ± 3e-05 s⁻¹. Also, in the series with glucosamine-6-phosphate [2], the KM stood at 7170 ± 1300 µM. Moreover, the “self-cleavage kobs at 640 uM GlcN6P” value with glucosamine-6-phosphate [4] was 1.68e-05 ± 7.3e-06 s⁻¹. The “self-cleavage kobs at 2500 uM GlcN6P” value with glucosamine-6-phosphate [5] was found to be 7.08e-05 ± 7.2e-06 s⁻¹. For the same variant, the “self-cleavage kobs at 10000 uM GlcN6P” value with glucosamine-6-phosphate [6] amounted to 0.000153 ± 1.6e-05 s⁻¹.
Regarding A39G U45G, in the series with glucosamine-6-phosphate [1], the kcat was found to be 0.0109 ± 0.0044 s⁻¹. Moreover, the “self-cleavage kobs at 40 uM GlcN6P” value with glucosamine-6-phosphate [7] was 0.00047 ± 6.3e-05 s⁻¹. The “self-cleavage kobs at 160 uM GlcN6P” value with glucosamine-6-phosphate [3] turned out to be 0.00207 ± 0.00047 s⁻¹. For the same variant, the “self-cleavage kobs at 640 uM GlcN6P” value with glucosamine-6-phosphate [4] is 0.00416 ± 0.00099 s⁻¹. Besides, the “self-cleavage kobs at 2500 uM GlcN6P” value with glucosamine-6-phosphate [5] amounted to 0.00467 ± 0.0013 s⁻¹. Also, the “self-cleavage kobs at 10000 uM GlcN6P” value with glucosamine-6-phosphate [6] worked out at 0.0173 ± 0.0023 s⁻¹.
For the variant U46A, in the series with glucosamine-6-phosphate [1], the kcat worked out at 0.00402 ± 0.00054 s⁻¹. Moreover, in the series with glucosamine-6-phosphate [2], the KM is 1880 ± 330 µM. In addition, in the series with glucosamine-6-phosphate [7], the “self-cleavage kobs at 40 uM GlcN6P” value was found to be 9.25e-05 ± 2.1e-06 s⁻¹. Also, the “self-cleavage kobs at 160 uM GlcN6P” value with glucosamine-6-phosphate [3] came out at 0.000271 ± 1.3e-05 s⁻¹. The “self-cleavage kobs at 640 uM GlcN6P” value in the series with glucosamine-6-phosphate [4] stood at 0.000926 ± 2.8e-05 s⁻¹. In the series with glucosamine-6-phosphate [5], the “self-cleavage kobs at 2500 uM GlcN6P” value stood at 0.00341 ± 0.00031 s⁻¹. Also, the “self-cleavage kobs at 10000 uM GlcN6P” value in the series with glucosamine-6-phosphate [6] was determined as 0.00344 ± 9.1e-05 s⁻¹.
As to C10U A64G, the kcat in the series with glucosamine-6-phosphate [1] is 3.72e-05 ± 4.4e-06 s⁻¹. In addition, the “self-cleavage kobs at 2500 uM GlcN6P” value in the series with glucosamine-6-phosphate [5] amounted to 3.75e-05 ± 5.1e-06 s⁻¹. The “self-cleavage kobs at 10000 uM GlcN6P” value with glucosamine-6-phosphate [6] was found to be 3.21e-05 ± 5.8e-06 s⁻¹.
G59U C70U: the kcat with glucosamine-6-phosphate [1] was 9.84e-05 ± 6.1e-06 s⁻¹. Further, the KM with glucosamine-6-phosphate [2] came to 899 ± 210 µM. In addition, the “self-cleavage kobs at 640 uM GlcN6P” value with glucosamine-6-phosphate [4] was 4.56e-05 ± 9.2e-06 s⁻¹. Further, in the series with glucosamine-6-phosphate [5], the “self-cleavage kobs at 2500 uM GlcN6P” value was 6.69e-05 ± 8.1e-06 s⁻¹. Also, in the series with glucosamine-6-phosphate [6], the “self-cleavage kobs at 10000 uM GlcN6P” value was determined as 9.36e-05 ± 8.8e-06 s⁻¹.
Turning to U56G U69C C70A, in the series with glucosamine-6-phosphate [1], the kcat turned out to be 6.04e-05 ± 1.7e-05 s⁻¹. In addition, the “self-cleavage kobs at 160 uM GlcN6P” value with glucosamine-6-phosphate [3] is 4.37e-05 ± 1.6e-05 s⁻¹. The “self-cleavage kobs at 640 uM GlcN6P” value with glucosamine-6-phosphate [4] came out at 8.99e-05 ± 2.7e-05 s⁻¹. The “self-cleavage kobs at 2500 uM GlcN6P” value in the series with glucosamine-6-phosphate [5] is 6.56e-05 ± 1.5e-05 s⁻¹.
With G26U G40U, in the series with glucosamine-6-phosphate [1], the kcat worked out at 0.000912 ± 0.00012 s⁻¹. In addition, the KM in the series with glucosamine-6-phosphate [2] is 272 ± 64 µM. In addition, the “self-cleavage kobs at 40 uM GlcN6P” value with glucosamine-6-phosphate [7] was determined as 0.000119 ± 2.3e-05 s⁻¹. Moreover, the “self-cleavage kobs at 640 uM GlcN6P” value in the series with glucosamine-6-phosphate [4] was found to be 0.000586 ± 0.00016 s⁻¹. Besides, in the series with glucosamine-6-phosphate [5], the “self-cleavage kobs at 2500 uM GlcN6P” value worked out at 0.00144 ± 0.00066 s⁻¹. Further, the “self-cleavage kobs at 10000 uM GlcN6P” value with glucosamine-6-phosphate [6] stood at 0.000883 ± 0.00019 s⁻¹.
Regarding A52U U55G, the turnover number (kcat) with glucosamine-6-phosphate [1] turned out to be 0.000246 ± 4.9e-05 s⁻¹. Also, in the series with glucosamine-6-phosphate [2], the KM was 2150 ± 980 µM. For the same variant, the “self-cleavage kobs at 640 uM GlcN6P” value in the series with glucosamine-6-phosphate [4] came to 7.12e-05 ± 1.2e-05 s⁻¹. Further, the “self-cleavage kobs at 2500 uM GlcN6P” value in the series with glucosamine-6-phosphate [5] stood at 0.000109 ± 1.5e-05 s⁻¹. In the series with glucosamine-6-phosphate [6], the “self-cleavage kobs at 10000 uM GlcN6P” value was determined as 0.000221 ± 2.4e-05 s⁻¹.
Consider U45A A64C, for which, in the series with glucosamine-6-phosphate [1], the kcat amounted to 0.000366 ± 4.6e-05 s⁻¹. Also, the KM in the series with glucosamine-6-phosphate [2] came to 2520 ± 570 µM. Besides, in the series with glucosamine-6-phosphate [4], the “self-cleavage kobs at 640 uM GlcN6P” value came to 7.26e-05 ± 1.9e-05 s⁻¹. The “self-cleavage kobs at 2500 uM GlcN6P” value in the series with glucosamine-6-phosphate [5] came to 0.000193 ± 3.8e-05 s⁻¹. In the series with glucosamine-6-phosphate [6], the “self-cleavage kobs at 10000 uM GlcN6P” value came to 0.000277 ± 7.6e-05 s⁻¹.
Regarding C16G G59A C71G, the kcat with glucosamine-6-phosphate [1] is 1.74e-05 ± 4.8e-06 s⁻¹.
Regarding U54C A64G, the kcat with glucosamine-6-phosphate [1] was determined as 0.016 ± 0.0067 s⁻¹. Moreover, in the series with glucosamine-6-phosphate [7], the “self-cleavage kobs at 40 uM GlcN6P” value stood at 0.000616 ± 8.4e-05 s⁻¹. For the same variant, the “self-cleavage kobs at 160 uM GlcN6P” value with glucosamine-6-phosphate [3] is 0.00156 ± 0.00033 s⁻¹. Further, the “self-cleavage kobs at 640 uM GlcN6P” value with glucosamine-6-phosphate [4] came to 0.00883 ± 0.0018 s⁻¹. Further, in the series with glucosamine-6-phosphate [5], the “self-cleavage kobs at 2500 uM GlcN6P” value came to 0.0287 ± 0.0082 s⁻¹. Moreover, in the series with glucosamine-6-phosphate [6], the “self-cleavage kobs at 10000 uM GlcN6P” value was 0.0123 ± 0.0031 s⁻¹.
